The target in the test is CX3CR1 (endogenous, on 3T3-L1 adipocytes) (mouse) (UniProt Q9Z0D9). Put plainly: cell-based or functional assay.
Sequence of UniProt Q9Z0D9 (Q9Z0D9 whole entry): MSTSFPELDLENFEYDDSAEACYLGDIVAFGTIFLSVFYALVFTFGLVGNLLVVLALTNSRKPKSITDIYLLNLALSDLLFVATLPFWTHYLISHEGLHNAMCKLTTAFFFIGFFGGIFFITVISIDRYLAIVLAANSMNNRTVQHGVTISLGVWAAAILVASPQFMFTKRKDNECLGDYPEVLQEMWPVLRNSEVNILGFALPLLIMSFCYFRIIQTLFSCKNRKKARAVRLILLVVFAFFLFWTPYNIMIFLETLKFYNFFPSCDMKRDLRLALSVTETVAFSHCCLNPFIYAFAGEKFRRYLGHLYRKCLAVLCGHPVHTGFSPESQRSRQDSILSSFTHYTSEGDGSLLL

For “recombinant soluble fractalkine (ligand)”, the fold change in glucose uptake over vehicle pretreatment alone; +1 nM FRA, +0.1 nM INS came out at 1.6 fold; the fold change in glucose uptake over vehicle pretreatment alone; +1 nM FRA, +1 nM INS was 1.6 fold; the fold change in glucose uptake over vehicle pretreatment alone; +1 nM FRA, +10 nM INS amounted to 0.9 fold; the fold change in glucose uptake over vehicle pretreatment alone; +1 nM FRA, basal was 1.4 fold. Besides, the fold change in glucose uptake over vehicle pretreatment alone; +10 nM FRA, +0.1 nM INS was determined as 1.9 fold; the fold change in glucose uptake over vehicle pretreatment alone; +10 nM FRA, +1 nM INS came to 1.8 fold; the fold change in glucose uptake over vehicle pretreatment alone; +10 nM FRA, +10 nM INS worked out at 0.9 fold; the fold change in glucose uptake over vehicle pretreatment alone; +10 nM FRA, basal is 1.3 fold. In addition, the fold change in glucose uptake over vehicle pretreatment alone; +100 nM FRA, +0.1 nM INS came out at 2 fold; the fold change in glucose uptake over vehicle pretreatment alone; +100 nM FRA, +1 nM INS was found to be 1.3 fold; the fold change in glucose uptake over vehicle pretreatment alone; +100 nM FRA, +10 nM INS amounted to 1.1 fold; the fold change in glucose uptake over vehicle pretreatment alone; +100 nM FRA, basal turned out to be 1.3 fold. Further, the mean 2-DOG uptake value; 1 nM FRA+0.1 nM INS stood at 1090, the mean 2-DOG uptake value; 1 nM FRA+10 nM INS was 3660, the mean 2-DOG uptake value; 1 nM FRA+Basal was determined as 544 and the mean 2-DOG uptake value; 1 nM FRA+nM INS (so in the source) is 3160. Moreover, the mean 2-DOG uptake value; 10 nM FRA+0.1 nM INS came out at 1280, the mean 2-DOG uptake value; 10 nM FRA+1 nM INS was 3540, the mean 2-DOG uptake value; 10 nM FRA+10 nM INS is 3750 and the mean 2-DOG uptake value; 10 nM FRA+Basal was determined as 521. This substance also displayed a mean 2-DOG uptake value; 100 nM FRA+0.1 nM INS of 1350, a mean 2-DOG uptake value; 100 nM FRA+1 nM INS of 2730, a mean 2-DOG uptake value; 100 nM FRA+10 nM INS of 4350 and a mean 2-DOG uptake value; 100 nM FRA+Basal of 515.

These data come from patent US20060160076A1.
